Source: publication PMC12135382 (The Journal of Biological Chemistry, 2025)

Biological target: T1, GR W712A-LgBiT (human, UniProt P04150 1-777, W712A)
T1 sequence: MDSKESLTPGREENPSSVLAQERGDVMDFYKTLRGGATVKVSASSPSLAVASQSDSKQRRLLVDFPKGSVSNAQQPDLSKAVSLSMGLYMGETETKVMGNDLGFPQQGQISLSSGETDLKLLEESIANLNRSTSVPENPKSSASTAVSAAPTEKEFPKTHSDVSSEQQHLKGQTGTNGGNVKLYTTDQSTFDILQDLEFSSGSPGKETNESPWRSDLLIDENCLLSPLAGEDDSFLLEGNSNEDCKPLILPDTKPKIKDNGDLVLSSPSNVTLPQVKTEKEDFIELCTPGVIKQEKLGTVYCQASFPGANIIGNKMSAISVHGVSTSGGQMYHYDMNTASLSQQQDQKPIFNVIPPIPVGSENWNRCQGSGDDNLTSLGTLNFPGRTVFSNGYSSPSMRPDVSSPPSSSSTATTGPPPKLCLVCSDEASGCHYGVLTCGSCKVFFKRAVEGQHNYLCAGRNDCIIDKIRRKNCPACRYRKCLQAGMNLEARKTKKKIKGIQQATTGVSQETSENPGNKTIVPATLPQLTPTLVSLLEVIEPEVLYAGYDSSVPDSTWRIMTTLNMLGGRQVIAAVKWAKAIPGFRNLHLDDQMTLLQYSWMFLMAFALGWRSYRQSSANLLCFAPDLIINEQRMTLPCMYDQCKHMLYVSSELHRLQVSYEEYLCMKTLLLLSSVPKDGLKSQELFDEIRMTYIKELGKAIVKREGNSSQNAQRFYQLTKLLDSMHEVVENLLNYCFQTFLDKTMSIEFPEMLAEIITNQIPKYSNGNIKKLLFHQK
Test: split reporter

B1: MR-SmBiT (mineralocorticoid receptor with C-terminal NanoBit small tag) (receptor)
chain: METKGYHSLPEGLDMERRWGQVSQAVERSSLGPTERTDENNYMEIVNVSCVSGAIPNNSTQGSSKEKQELLPCLQQDNNRPGILTSDIKTELESKELSATVAESMGLYMDSVRDADYSYEQQNQQGSMSPAKIYQNVEQLVKFYKGNGHRPSTLSCVNTPLRSFMSDSGSSVNGGVMRAVVKSPIMCHEKSPSVCSPLNMTSSVCSPAGINSVSSTTASFGSFPVHSPITQGTPLTCSPNVENRGSRSHSPAHASNVGSPLSSPLSSMKSSISSPPSHCSVKSPVSSPNNVTLRSSVSSPANINNSRCSVSSPSNTNNRSTLSSPAASTVGSICSPVNNAFSYTASGTSAGSSTLRDVVPSPDTQEKGAQEVPFPKTEEVESAISNGVTGQLNIVQYIKPEPDGAFSSSCLGGNSKINSDSSFSVPIKQESTKHSCSGTSFKGNPTVNPFPFMDGSYFSFMDDKDYYSLSGILGPPVPGFDGNCEGSGFPVGIKQEPDDGSYYPEASIPSSAIVGVNSGGQSFHYRIGAQGTISLSRSARDQSFQHLSSFPPVNTLVESWKSHGDLSSRRSDGYPVLEYIPENVSSSTLRSVSTGSSRPSKICLVCGDEASGCHYGVVTCGSCKVFFKRAVEGQHNYLCAGRNDCIIDKIRRKNCPACRLQKCLQAGMNLGARKSKKLGKLKGIHEEQPQQQQPPPPPPPPQSPEEGTTYIAPAKEPSVNTALVPQLSTISRALTPSPVMVLENIEPEIVYAGYDSSKPDTAENLLSTLNRLAGKQMIQVVKWAKVLPGFKNLPLEDQITLIQYSWMCLSSFALSWRSYKHTNSQFLYFAPDLVFNEEKMHQSAMYELCQGMHQISLQFVRLQLTFEEYTIMKVLLLLSTIPKDGLKSQAAFEEMRTNYIKELRKMVTKCPNNSGQSWQRFYQLTKLLDSMHDLVSDLLEFCFYTFRESHALKVEFPAMLVEIISDQLPKVESGNAKPLYFHRK
  reconstituted luciferase activity relative to WT receptors: 32%
